The data set deals with GST-RAP2.1 N-terminal 120 aa (AP2 DNA-binding domain) (UniProt Q8LC30 1-120). The experiment in a line: EMSA; 100 ng probe, 5 or 10 ug protein; EMSA as in cited ref 42; buffer, salt, pH and temperature not given; 100 ng probe with 5 or 10 ug protein. The following applies: protein: recombinant; tags: GST (pGEX6P-1, N-terminal). For orientation: A gel shift assay detects complexes by their altered migration in electrophoresis.
Sequence of GST-RAP2.1 N-terminal 120 aa (AP2 DNA-binding domain) (Q8LC30 1-120): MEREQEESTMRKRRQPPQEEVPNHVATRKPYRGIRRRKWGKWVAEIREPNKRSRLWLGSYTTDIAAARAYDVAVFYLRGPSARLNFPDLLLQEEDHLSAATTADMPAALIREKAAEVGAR

B1: mDRE (dsDNA)
DNA 1: AATTCAAAAGATATACTACTTTTATGAGTT
DNA 2: AACTCATAAAAGTAGTATATCTTTTGAATT
As to B1, the binding result was “no binding”.

B2: wDRE (dsDNA)
DNA 1: AATTCAAAAGATATACTACCGACATGAGTT
DNA 2: AACTCATGTCGGTAGTATATCTTTTGAATT
For B2, the binding result is on record as “binds”.
